From publication PMC12556802, “Rules of engagement: Determinants of chemokine receptor activation and selectivity by CCL27 and CCL28” (The Journal of Biological Chemistry, 2025)
Read-outs that look alike come from different tables or passages of the source.

Columns and labels:
[1] = substrate: T1, CC chemokine receptor 10 (CCR10) on L1.2 cells (human) (UniProt P46092)
T1 sequence: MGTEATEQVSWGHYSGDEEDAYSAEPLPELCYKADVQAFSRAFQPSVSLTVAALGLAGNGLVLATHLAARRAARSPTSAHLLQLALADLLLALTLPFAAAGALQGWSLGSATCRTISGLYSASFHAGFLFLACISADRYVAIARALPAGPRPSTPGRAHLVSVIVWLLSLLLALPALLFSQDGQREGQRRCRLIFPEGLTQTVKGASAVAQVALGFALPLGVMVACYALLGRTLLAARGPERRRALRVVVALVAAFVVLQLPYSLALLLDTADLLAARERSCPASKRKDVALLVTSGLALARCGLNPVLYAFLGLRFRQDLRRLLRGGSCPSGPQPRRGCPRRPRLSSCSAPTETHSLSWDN

[2] = target: T2, CCR10-RlucII (human, UniProt P46092 1-362)
T2 sequence (looked up): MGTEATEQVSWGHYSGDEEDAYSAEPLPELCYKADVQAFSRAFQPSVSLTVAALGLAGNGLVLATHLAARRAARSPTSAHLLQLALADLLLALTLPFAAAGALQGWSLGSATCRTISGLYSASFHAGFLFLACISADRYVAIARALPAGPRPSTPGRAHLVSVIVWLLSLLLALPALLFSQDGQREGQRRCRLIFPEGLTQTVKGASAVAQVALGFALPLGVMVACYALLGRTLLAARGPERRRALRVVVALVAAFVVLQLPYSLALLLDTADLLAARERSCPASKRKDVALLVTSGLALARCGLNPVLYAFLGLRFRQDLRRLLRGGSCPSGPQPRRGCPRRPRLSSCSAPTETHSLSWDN

[3] = substrate: T1, ; remark: listed apart in the source
[4] = substrate: T1, ; remark: listed apart in the source
[5] = target: T2, CCR10-RlucII; test: cell-based or functional assay

B1: F1A-CCL27 (ligand)
chain: ALLPPSTACCTQLYRKPLSDKLLRKVIQVELQEADGDCHLQAFVLHLAQRSICIHPQNPSLSQWFEHQERKLHGTLPKLNFGMLRKMG
migration of L1.2/CCR10 cells, dose-response (0.1 nM to 1 μM), reduction in efficacy relative to WT CCL27 [1]: 35%
migration of L1.2/CCR10 cells, dose-response (0.1 nM to 1 μM), reduction in potency relative to WT CCL27 [1]: 10 fold
transwell migration of L1.2/CCR10 cells at 50 nM chemokine, reduction compared to WT CCL27 [1]: 85%

B2: F-CCL27 (ligand)
chain: FFLLPPSTACCTQLYRKPLSDKLLRKVIQVELQEADGDCHLQAFVLHLAQRSICIHPQNPSLSQWFEHQERKLHGTLPKLNFGMLRKMG
β-arrestin2 recruitment to CCR10-RlucII by BRET in HEK293 cells, EC50 of the chemokine [2]: 19 nM
β-arrestin2 recruitment to CCR10-RlucII by BRET in HEK293 cells, Emax relative to WT-CCL27 [2]: 1.8 fold
internalization of CCR10 on L1.2/CCR10 cells (3.1-100 nM chemokine, 45 min, 37 °C), percent of receptor remaining on the surface at 3.1 nM [3]: 30%
bare filter chemotaxis of L1.2/CCR10 cells, efficacy relative to WT CCL27 [4]: 1.1 fold
bare filter chemotaxis of L1.2/CCR10 cells, potency relative to WT CCL27 [4]: 10 fold
transendothelial migration of L1.2/CCR10 cells, efficacy relative to WT CCL27 [4]: 2.7 fold
transendothelial migration of L1.2/CCR10 cells, potency relative to WT CCL27 [4]: 3 fold

B3: CCL27 (ligand)
chain: FLLPPSTACCTQLYRKPLSDKLLRKVIQVELQEADGDCHLQAFVLHLAQRSICIHPQNPSLSQWFEHQERKLHGTLPKLNFGMLRKMG
β-arrestin2 recruitment to CCR10-RlucII by BRET in HEK293 cells, EC50 of the chemokine [5]: 89 nM

B4: NT28-CCL27 (ligand)
chain: ILPIASSCCTQLYRKPLSDKLLRKVIQVELQEADGDCHLQAFVLHLAQRSICIHPQNPSLSQWFEHQERKLHGTLPKLNFGMLRKMG
β-arrestin2 recruitment to CCR10-RlucII by BRET in HEK293 cells, efficacy relative to WT CCL27 [5]: 1.5 fold
β-arrestin2 recruitment to CCR10-RlucII by BRET in HEK293 cells, potency relative to WT CCL27 [5]: 3.5 fold
